One test concerns the target SENP1 (UniProt Q9P0U3). The experiment in a line: co-IP. The conditions noted are these: reference: wild type.
For the next test, the target named is UBC9 (UniProt P63279). Briefly: co-IP, Strep-ALKBH5 with Flag-UBC9. Conditions: reference: wild type.

With ALKBH5 (from UniProt Q6P6C2) S87A, the “binding against the reference” value is recorded as “stronger” with SENP1 (sites S87) and “weaker” in the test with UBC9 (sites S87).

For ALKBH5 (from UniProt Q6P6C2) S325A, the “binding against the reference” value with SENP1 (sites S325) was “stronger”; with UBC9 (sites S325), “weaker”.

The record behind these values is article PMC8191756.
